In article PMC10257657 (Nature Communications, 2023):

Molecular target: the molecule itself
Experiment: AUC; analytical ultracentrifugation of VibO (Supplementary Fig. 24b); conditions not shown

B1: VibO, NADPH/FAD-dependent monooxygenase (oxepinone-forming enzyme) of Boreostereum vibrans (enzyme)
chain: MAAVENFEGYVEPELFERPGTSLPNKLGVMPQLTWPNVLNGTNCEKPAVPNYKPPSKVDVIIIGAGPVGLTTAACLLRQGITVRILDRSPHPLPVGRADGLQPRSMEVFDLLGLGEEVYHVGIRVEHTTVYKDGKQHIFAESHQAPGNEAHYTGLHACTQTEVEHLLIRDLIRHDILVERPCTATSYTFDEEADASVTHPITVNITNEATGAEEVVTARFLVGSDGAHSMIRKSLPIEFPGVKTDLHWGIVDAVINSDFPHRWTFGTVLNSEYGGCLIIPRERNMVRLYVQLRAEPGKAFDHSKWGPEEILVILNKVFAPYTLSYAEPVDWYTILTINERVATSFTYKDRIFLAGDSCHVHSAKGAFGMNTGVMDAHNLAWKLAMLCRGIAKPSLLASYDVERRENALRAVATSARYLRFVGNCTFQAIDGSGEVDKEADELVVPPGEDKDVFYFKKFVGQVGRFLIGLDVDYAENALNKLSPAVSRARAGYRASNPRVALSRSHSGRLYHSFGHLGQFTLLVFASNMGGALNAKLHALDSYLAGPSSFYHAYGGADTFKIVVVVRATPSQADQRVKTFPFLSKAGHTVYDDQLPLSHFGGDAHALYGVSHEEGAIVVVRPDSWIGTSSTISDARSLESYFDGFLFKSTEGSY
- stoichiometry N: 2
